assay: soluble fraction after stress (log2 fold change); higher = more stays soluble; pooled small domains, quantitative proteomics; settings: stress: 75 degC
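Note: 20 min heating vs room temperature control held 20 min.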

| Sequence | soluble fraction (log2) |
| --- | --- |
| HMKFLHLADLHLGKRVNGFSMLEDQAYILRQILTILDDERPDGVLIAGDVYDKPVPPTEAVELLD | -0.859 |
| HMKFLYQKAREEIISLIQDGEIKPSEKIMPERELSELLGYNRMTIKKAINSLVAEGVLMKKRGAGTFLLG | -0.292 |
| HMKFLYQQVYQDIKDKITSAQYQFGDLLPSEREIGEEYHVDRTTVRKAFSLLVDEGLVEKRAGKGSVVIS | -0.74 |
| HMKFTELEQLMLKREINTLADIARVLKTTPQAVSNWKARDQIPYHIVAKINASINKDSNDSSLSI | -0.328 |
| HMKFTSEKDISLLELVKAKMGFVSNTKARNVIKIGQIMVSGKVIKIPSTLIKPGTEVELARRV | -1.76 |
| HMKFYKMIDESDEKIENPEIMIFQIIELVSSTTYSAIINKEPVDVETLKPYLYQTIRTIIINHQS | 0.363 |
| HMKGEKVTKIELSNFIKFLINDLENKGFFNPPEKKDSMIDNIYSIYNKMTLTKKELNMLWGMHKKLK | -1.9 |
| HMKGERHNKILELIQQHAIDRQEDLLRYLKEAGFQVTQATVSRDIRELHLVKVAAGGGQYRYVSAAAAS | -1.04 |
| HMKGIHDYITKDGLRVVKVHYSADPDKDVTTVEGKKWMAKALLGYPGGLEGAKWRREMEIDFNA | -0.167 |
| HMKGILVPASSIISDGDKNYVWTVEKGKAKKVEVTLGNADAENQEISSGLTKDSKVITNPTDSLKDGQEV | 0.228 |
| HMKGKDLQDAVVTVVGGAENWNAIRAWAQASASDSEKREINAAFQSGKLMATMMAERLALAYQQSG | 0.182 |
| HMKGKITTNWVSLTSDLGWLRSELYSSGSVLEERISNEGLIELHLENFQNDLIKLLEVEGFDLIKE | -3.18 |
| HMKGQLVVFPNPASSNDMVRFNKNISFSIFDITGHLVDTKRNVNELSVGNLEAGTYILRTEQGDVLRMVI | -1.45 |
| HMKGRPTTAIITDERTNLRSGPGATNKTIAQAGAGEKLAIIDEKDGWYQVSRAGINGWVAGWVIDVAW | -1.83 |
| HMKGSIFLDEATKMVDNSALKSLNTFLEEYARETNNQIFLISHQETPAEVTQIKLKKVGGETSYE | 0.154 |
| HMKGSPFSQLPKEKKKRILQAAIEVFAQNDYKHASTDEIASRAGISKGLLFYYFHDKKTLYFYLGEYLKR | 0.118 |
| HMKGTLPEMITSREEVVLKFMVNGWDAKRIASELDISVLTVRKHIANIYEKLHVQSKAEIISMAHQQKWFN | -3.27 |
| HMKGTSIELIVPQDIAGLRLDQVLAKLLPQWSRSRLQSWINEKHITVNGQTTTAKQKLWGNETIQIIPPI | -1.45 |
| HMKHEFSEEWLDWIKSNIADGQNKNGLFKVLLNHGYAYDAVREVMQYEPTVPLDELVDPLRA | -0.143 |
| HMKHFNDEELDGFAGLKSDDYNEEQVELFRNIFEELHPDEIIEWTESLRRRGIEIPSSLKDEVVMMIN | 0.29 |
| HMKHFTYEEMELMSIYDPGTREGLIANLEEMRGYLEPDETELRELTDSALEKLRELSDADYEQLELI | -0.516 |
| HMKHMTMYEAAKIAKEVGAPKLWLTHYSPSMTRPEEFMDDVRKIFPAAYAAKDGWTMELNFDEG | -0.74 |
| HMKHRTQMDIQQLPAIEGKGGFEYKISIIHLSTRIKYSEIHDNYNTTTIAKVYENAIERLPPF | -2.39 |
| HMKHSLNHLGLWLLPELSRRDIQLREFAHLLGTTSQGLSDLLRGQRFSSHTLAQWQLRFQEKLDEIDQAS | -1.99 |
| HMKHTVSVDRLQPGVFVSLGGLSWLDHPFLLNRFRLTDHDQIKVLRSLGVKEIEWDPTRSTAQPLPE | -1.04 |
| HMKIAPRTAENQQLRKMILEIYTTSKKRVGPAKVRRMLLRDYGISISIGRVYRLMSTMNLPKMS | 0.0421 |

| Sequence | soluble fraction (log2) |
| --- | --- |
| HMKIDLPIWLNKKAWEAWVEYKKERKQKLTPSIIKFQLRILEKNKEDHPEIIRNSITNGWTGLFPLK | -1.81 |
| HMKIEDSNTIKLKANQAYKTHYYSEAIKLYDELLTKYEPNSEAIKLNLAHAHFKAKGFAAASKLYT | 0.0472 |
| HMKIELTDQQKSLVVDEWNKGEANPPSLLQLIRLAYPDQPHLDGRSKEGKAVKAFLATRDINPLA | 0.0244 |
| HMKIETVENPLLERTEISALFDSKSGSLTRKEAIDLISKKARIDSSTVYAIKLSNSSGSTRIIGLFY | 0.16 |
| HMKIIDDIQEFAGVTKTQNTFFHIFNHLHQNGKQLILTSDRAPVMLQGMEERLLTRFKWGLVAELE | 0.285 |
| HMKIKKIWFDGDYIYGMDERNNTYRQSLLWYSKLRNASAEERERYTFSTIGIHWRELDEDVSFESF | -3.03 |
| HMKIKLQATEQQRKTLDELYVQLKKLEPTSKEDLSLLYRLENPHLVSKQEAQGLISIAIGRVGSLAIEQQ | -0.44 |
| HMKINKQHLAFQIFGIRAKLGLSMEQFGELLGANKSSVSGWERGTVVPSSQRLKKIAELGKISLAELLTP | -3.01 |
| HMKINVQETEVYRYLLERADRLYSMILGEERENLMERTRFFEKEVAKASLPHLPKLYDEFSIYLDRLERG | -0.393 |
| HMKIPYGELIKLLNAAAPKLQDAQGWMDMEAAGQFIGSRWSYLDYGFKDWPDSFKTVHGLEIQGQRMRLA | -0.577 |
| HMKIQISGSQRIDENVVVKVAGLSFPQSLLSLEPGQIESKLMQELPVQEVSVQRRLLPPGLDIQLVE | -0.0996 |
| HMKIQTYEDFRNAYPDIQGSLFGSAERYKTDLDWGDVAAKYDADEELKNVRNIFQLVRRYEQKYS | 0.612 |
| HMKISIPQEYFEIYNVLKQRPMHINEISKILKKPVSEISGTISLMEIEGYITKLTTDQYVLKKI | -0.473 |
| HMKITADQEIETAINYFKKSIAEKGWKGVNPDEFKQMNDYLSETFGYSATIKFQKALDEQGLMVDE | -0.0068 |
| HMKITININIETLSHHIKQSGVPLGRLQESVPDYNEIVTGNKSPTYQQLEKISKLIRVPLGLLVIESPL | 0.039 |
| HMKITLAESVYERIRRDIITNQLKPGEKINIRELSTRYEASETPIRLALNRLASENIIEHFPRQGMRVK | -1.4 |
| HMKIVPEPGTVLIREYQEERHEVTVTLDGAFDYKGTLYSSLSEIARLITGTRWSGPVFFGLRS | -0.369 |
| HMKIYDQVVDRIKDRISKGDMPQGSALPPERQLIDELNVSRSSLREGFRILEMMGLIESIPGKGRFVRTSR | -0.607 |
| HMKKAIYPGSFDPLTLGHIDIIKRASGIVDELVVGVLNNSAKNSLFSLDERVSMIEEMTKDLPNVSVTSFD | 0.16 |
| HMKKEDFLEILRDYLKKGFSEDEVMDILRDYEEYFVDGIIEGKSEIEIIQSLGSPKEIANELLAES | -0.631 |
| HMKKEQVIVPNVVGDTYDVALRKLTDAKLKVGETFPADREGHQGVIEKQSPAAGETVDEDTPVALFFKV | 0.0903 |
| HMKKERITWDERLERFAKYITENESLPYPSSKEHAWFEENKALYDAGELESVRAQSFSFLLKILRRMNLI | -0.787 |
| HMKKGATVSGVIVEKTKKSLIIDLGAKTEGVVADKEFEFAIDFVKELKKGDEVKAIVISTDNDKGQVVLSL | -0.414 |
| HMKKHALFTLFKHHNANGTTVWYARFWDDATQRYAIARSTGVLAQGKRERHDEAITVAREMASSIQFS | -2.81 |
| HMKKHAPSLMRQIRRELKEGKSPESLLSKAKLISDSYYRSLSFYLLIPYLSPNSKQFQEAISLAGKDID | 0.175 |
| HMKKKSYIVSFATDEDAQRFAREGFEVISLSGRQITVSLKGEMMPLVKALGSYQVVGLETVA | -1.77 |

| Sequence | soluble fraction (log2) |
| --- | --- |
| HMKKLPDDANDIIERVSSRLAQKFRFGYHTIDDMKQQAALFAWEGIYDSWDDSRPLENFLWIHVRNRLYN | -0.111 |
| HMKKLTGVQKAAILMIALGPDISSSIIKRLPENMVERITYEIANMTKITAQQRNDILKEFMDMTVAQ | -3.64 |
| HMKKNTEALDYYKKAGANFPEDEVISSEYLFRAAQLQEVLGKTDEAVAIYKDIKAKYPTTEIGLNVDKFIL | 0.0379 |
| HMKKQLKSEAVADELRRKILSGGFPDKRLPRKDELTEYFQVSQKTVEAALKMLTAEGLIRGVKGTGIFVNG | -0.703 |
| HMKKQLTISDGDWAGKVSSMLEDMGVINSASEFDKYLSDNGYSNVIKSGTYDVSPEDTFQELAEKIT | 0.952 |
| HMKKRDAEIMLQREFKLTEAIAMVRDRDIQELLPIALYFKVNINQPTAEIRYNLLNIAKSKTQEFIEAFD | -2.14 |
| HMKKRDANSQGTRLILFYMLQRLHTEYKLQGFVTYNQRRSFREIYDAYHALGGNGFGTAMWEEVKELDLK | -2.18 |
| HMKKTAAKVLGESEGKPVTVQSGRYGPYVQLGSIRATLPKDLEQDDVTLDRALELISAKAERAGK | -0.0332 |
| HMKKTDFNVENYDIEELAAILNFKYVPLNQGLIRDRIKDMKQRFKNKPEYIKFFTDVEIKLVNNLNLFN | -1.67 |
| HMKKTFSKSSVMEAIFRDIPNITIPNAHEVYTLIKNISVMNKRKSITSEDIEKAYDALGLTP | -0.928 |
| HMKKTPLSELTNRAVELFIETVFMERNYSVSSQRQFISALKIFTVFYPQTKIHNLSLERLQSSFDKLLN | -1.25 |
| HMKKTTEFAVTPEFQQRLEASPELKAAFQALTPGRQRAHLLFFAAPKQAQTRQARIEKSLPQIMAGKGLN | -0.2 |
| HMKKTVTDSVELLTFLKDIFTNTSTNKLRKMLTTGRVTVNNIVIHKAKHILVQNDVVEIGDK | -3.37 |
| HMKKVIEFKDVSFAFEKKPILQDFNLLVQNKDRIGIVGDNGVGKSTLLNLIAERLQPQSGQVII | 0.111 |
| HMKKVSVKPILELRAAGISMRKIETLMHVSRHTISAIYKAADAYSISWDNVKDFDEDKIYEMLFPPTP | -4.13 |
| HMKKYEIIFNDLKQSIVNGKYSNEERLPPEETLAKKYQTSRVPVQQALNALVGIGMVKRIAGSGTYVTY | -0.394 |
| HMKKYFPPKSRFNPNKYLLKDWMALGLSEKQSQSILNFIQRGIYSNSALEKIYVMPEEVFTLIKDSTYYEE | -1.38 |
| HMKKYIEIYNYYKQLIESEQLKSGDKMPSVRKATKIFNVSKTTVQNAYFDLQADGYIIAAPKSGYYVTEM | -1.07 |
| HMKKYLNIYNIIVNKIESKEYQSNDKLPSEKELMDQYNVSRDTVRKSLNMLEQNGYIQKTKGKGSFVLDIN | -0.865 |
| HMKLEEITIIVPSLRLDNFVSDLARTSRSKAVQIIDSERVFINGQNETKASKQVKLGDVITSA | -0.211 |
| HMKLHPRDQERTRAISARGERLYAVTVGDLRRRIGEMLEWFGRQIESQEPMRVAKAARRITDFFDQVEAFT | -2.5 |
| HMKLIRLGKAAGELNVGMSTLAEFLQSKGHSVDPNPNTKLTPEQYALLRMEFAADQTLKKLTKQP | 0.452 |
| HMKLKHANGNHPLTQQEKQNMIEEAAKHYGDYMTALGFDWKQDPNSSDTPMRVAKAFVNDLAEGVY | 0.0234 |
| HMKLLLSANISKLRKKYSMTQEQLAEALGVTFASVSKWERGVATPELKLIAEMADMFEVSIDALIGYEFRN | -1.87 |
| HMKLPIEKESYRIIWDLEEESFRIRLKISENSPQEEKNILINQAIEDIENITGEPIDKSPYYVLYE | -0.627 |

— the domain aggregation screens of Martell et al. (2025)
